Experimental data reported in patent US5503978.

Key:
[1] = test system: AMV reverse transcriptase (Avian myeloblastosis virus); conditions: intramolecular 3' extension to end of template; 100 nM RT
[2] = biological target: T1, HIV-1 reverse transcriptase (HIV-1) (UniProt P04585+P04585); assay: inhibition; conditions: almost no inhibition at 81 nM
[3] = biological target: T1, HIV-1 reverse transcriptase (HIV-1); assay: filter; conditions: apparent Kd of degenerate library

Sequence	activity [1] [% initiation]	Ki [2] [nM]	Kd [3] [nM]
ATCCGCCTGATTAGCGATACTTACGTGAGCGTGCTGTCCCCTAAAGGTGATACGTCACTTGAGCAAAATCACCTGCAGGGG [RT26]	50	–	–
CCCCTGCAGGTGATTTTGCTCAAGTNNNNNNNNNNNNNNNNNNNNNNNNNNNNNNNNNNNAGTATCGCTAATCAGGCGGAT [R0 degenerate 35N ssDNA library]	–	> 3000	1400
